Source: patent US20260232826A1, “ANTIBODY-DRUG CONJUGATES AND THEIR USES” (Mablink Bioscience, priority 2022, published 2026)
“Also recorded” adds a separate entry of the source.

Columns and labels:
[1] = system: FRα positive cancerous cell lines; assay: In vitro cytotoxicity assay (MTT) on FRα+ cancerous cell lines; assay type: cell-based, Human; settings: 144 hours incubation, several FRα positive cell lines (FIG. 3)
Protocol: In vitro cytotoxicity of compound exatecan mesylate was assessed on several FRα positive cancerous cell lines. Cells were plated in 96-well plates at an appropriate density depending on the cell line (between 1000 and 10000 cells/well in 100 μL of appropriate culture media) and incubated at 37° C. for 24 hours. Serial dilutions of the tested compound previously dissolved in culture media (50 μL) were added, and incubation was carried at 37° C. out for 144 hours. MTT (5 mg/mL, 20 μL, Sigma-Aldrich) was added into the wells, and incubation was continued for 1 to 2 hours at 37° C. Culture media was then carefully removed, and well content was homogeneously dissolved with acidified isopropanol. Absorbance values were measured on a Multiskan™ Sky microplate reader (Thermo Scientific) using a wavelength of 570 nm (with a reference wavelength of 690 nm). The IC50 concentration values compared to untreated control cells were determined using inhibition dose response curve fitting (GraphPad Prism 9).

recombinant human FRα [2] = molecular target: T1, recombinant human FRα (Homo sapiens, UniProt P15328); assay: Recombinant FRα-binding affinity by ELISA (human); settings: FIG. 4A/4B
T1 construct: purchased Sino Biological 11241-H08H
Protocol: Sandwich ELISA assays are performed using 96-well high-binding ELISA plates (Corning Inc., New York, NY, USA, Cat #3590). Plates are coated using 100 µL/well of recombinant human FRα protein (Sino Biological cat #11241-H08H) in PBS (pH 7.4) at 2 μg/mL and incubated overnight at 4° C. After 2 washes with PBS-T (PBS+0.05% Tween-20), the plates are blocked with 200 μL/well of incubation buffer (PBS-T+0.1% BSA) for 1 h at room temperature. The plates are washed 4 times with PBS-T, and 100 μL of a threefold dilution series of tested compound (antibody or antibody-drug conjugate) is added. Then, the plates are incubated for 2 h at room temperature in the dark. After 5 washes with PBS-T, plates are incubated 1 h at room temperature with 100 μL/well of a goat anti-human IgG (H+L) HRP conjugated antibody (Jackson Immunoresearch cat #109-035-088), previously diluted 1:250000 in incubation buffer. After 5 washes with PBS-T, TMB substrate solution (Thermo-Fisher cat #N301) is added. Peroxidase activity is stopped with 0.18M H2SO4 and absorbance is read at 450 nm (reference wavelength 650 nm) using a Thermo Scientific MultiSkan EX microplate reader. Sigmoidal fittings were performed using GraphPad Prism 9 software.
Sandwich ELISA assays were performed using 96-well high-binding ELISA plates (Corning Inc., New York, NY, USA, Cat #3590). Plates were coated using 100 μL/well of recombinant human FRα protein (Sino Biological cat #11241-H08H); recombinant cynomolgus FRα protein (Sino Biological cat #90950-C08H); recombinant rat FRα protein (Sino Biological cat #81073-R08H) or recombinant mouse FRα protein (Sino Biological cat #50573-M08H) in PBS (pH 7.4) at 2 μg/mL and incubated overnight at 4° C. After 2 washes with PBS-T (PBS+0.05% Tween-20), the plates were blocked with 200 μL/well of incubation buffer (PBS-T+0.1% BSA) for 1 h at room temperature. […] Peroxidase activity was stopped with 0.18M H2SO4 and absorbance was read at 450 nm (reference wavelength 650 nm) using a Thermo Scientific MultiSkan EX microplate reader. […]

[3] = molecular target: T2, extracellular human FRα expressed on cancerous cell lines (Homo sapiens, UniProt P15328); assay: Cell-binding affinity by flow cytometry; settings: APC-labelled antibody or ADC, flow cytometry (FIG. 6)
T2 construct: endogenous in cells; host or cells: human cancer cell lines (ATCC/DSMZ/ECACC); BT-474 as FRα-negative control
Protocol: Antibody or ADC binding to extracellular human FRα expressed on cancerous cell lines is assessed by flow cytometry. Tested antibody or ADC is conjugated to APC fluorophore using LYNX Rapid APC Antibody Conjugation Kit according to the manufacturer's protocol (Bio-Rad, Cat #LNK032APC). Into 500000 cells (suspended in 100 μL of PBS in flow cytometry plastic tubes) is added 5 μL of a 10 μg/mL solution of tested APC-labelled antibody or ADC. Cells are incubated 20 min in the dark, are washed with PBS 3 times by centrifugation and are re-suspended in 200 μL of PBS for analysis. Flow cytometry is performed using a BD Fortessa flow cytometer controlled by BD FACSDiva software (BD Biosciences) and data are analyzed using FlowJo software (BD Bioscience).
Antibody or ADC binding to extracellular human FRα expressed on cancerous cell lines was assessed by flow cytometry. Tested antibody or ADC was conjugated to APC fluorophore using LYNX Rapid APC Antibody Conjugation Kit according to the manufacturer's protocol (Bio-Rad, Cat #LNK032APC). Into 500000 cells (suspended in 100 μL of PBS in flow cytometry plastic tubes) was added 5 μL of a 10 μg/mL solution of tested APC-labelled antibody or ADC. Cells were incubated 20 min in the dark, were washed with PBS 3 times by centrifugation and were re-suspended in 200 μL of PBS for analysis. Flow cytometry was performed using a BD Fortessa flow cytometer controlled by BD FACSDiva software (BD Biosciences) and data were analyzed using FlowJo software (BD Bioscience).

recombinant human FRα [4] = molecular target: T1, recombinant human FRα; assay: Human FRα-binding affinity by SPR (Biacore); settings: Biacore T200, 25° C. (FIG. 5)
Protocol: Surface plasmon resonance (SPR) experiments are performed on a Biacore T200 apparatus, at 25° C. Tested antibody or ADC are captured at low density (300-500 RU) on a CM5 series S sensorchip, beforehand functionalized with a Human Antibody Capture kit (Cytiva cat #BR100839). A functionalized surface/flow cell treated similarly but omitting ligand is used as reference. To measure kinetics rates and affinities, recombinant human FRα (Sino Biological cat #11241-H08H) analyte sample is injected in duplicates at 5 concentrations (0.5, 1, 2, 4, 8 nM) in series using single cycle kinetics strategy and at constant […] flow rate of running buffer (HBS-EP+, Cytiva cat #BR100669) with contact pulses of 300 sec. The dissociation phase is measured by injection of running buffer for 900 sec. Between duplicates, surfaces/flow cells are regenerated with 3M MgCl2 to remove both analyte and ligand, and fresh ligand capture are done using identical conditions. The data analysis is performed using the Biacore Evaluation software after subtraction of reference surface and analyte zero-concentration signals. […]
Surface plasmon resonance (SPR) experiments were performed on a Biacore T200 apparatus, at 25° C. […] The dissociation phase was measured by injection of running buffer for 900 sec. […]

T1 sequence (P15328 25-234): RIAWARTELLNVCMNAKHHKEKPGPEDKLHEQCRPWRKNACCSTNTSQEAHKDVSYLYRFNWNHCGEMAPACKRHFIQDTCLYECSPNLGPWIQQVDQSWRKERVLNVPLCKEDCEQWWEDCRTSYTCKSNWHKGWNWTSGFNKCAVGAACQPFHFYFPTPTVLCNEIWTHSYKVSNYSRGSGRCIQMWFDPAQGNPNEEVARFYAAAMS
T2 sequence (P15328 25-234): as above

## Exatecan Mesylate
[1]
  IC50's in vitro potencies: sub-nM to low-nM

## farletuzumab-LALA: Fc-silent farletuzumab with L234A and L235A mutations, heavy chain SEQ ID NO:9, light chain SEQ ID NO:10
Recombinant human FRα [2]
  recombinant human FRα binding (ELISA), in words: No loss of binding
[3]
  human FRα cell binding: Comparable human FRα cell binding
Recombinant human FRα [4]
  recombinant human FRα binding (SPR), in words: No loss of binding

## farletuzumab: anti-FRα IgG1 antibody, heavy chain SEQ ID NO:11, light chain SEQ ID NO:10
Recombinant human FRα [2]
  recombinant human FRα binding (ELISA), in words: No loss of binding
[3]
  human FRα cell binding: Comparable human FRα cell binding; also recorded: binding affinity appeared identical
Recombinant human FRα [4]
  recombinant human FRα binding (SPR), in words: No loss of binding

## mirvetuximab: humanized anti-FRα antibody, heavy chain SEQ ID NO:16, light chain SEQ ID NO:17
Recombinant human FRα [2]
  recombinant human FRα binding (ELISA), in words: No significant loss of binding
[3]
  human FRα cell binding: binding affinity appeared identical
